Source: US9611285B2, “Fucosyltransferases and their applications” (Jennewein Biotechnologie GmbH, priority 2011, dated 2017)

How the values were obtained:
[1] = system: alpha-1,2-fucosyltransferase His6-Propeptide-WbgL; assay: Acceptor substrate spectrum by HPAEC-PAD activity assay; format: biochemical, Escherichia coli O126; details: acceptor substrate instead of 5 mM lactose; 2 mM GDP-β-L-fucose; relative to lactose
Procedure: (§1) Enzyme activity was also determined by HPAEC-PAD analysis for detection of 2′-fucosyllactose. The assay solution contained 2 mM GDP-β-L-fucose, 5 mM lactose, 50 mM Tris-HCl pH 7.6 with 2 mM MnCl2, 1 mM DTT, 1 U alkaline phosphatase in a total volume of 175 μl and was incubated at 30° C. after the addition of […] and purified enzyme solution. The reaction was stopped by heating for 5 min at 95° C. at different time points where the conversion rate was linear. The centrifuged samples were analysed by Dionex HPAEC-PAD (Dionex Corporation, Sunnyvale, Calif., USA) on CarboPac PA1 column using Chromeleon™ 6.40 Software. The elution was carried out with 50 mM NaOH at 30° C. (flow rate 1 mL/min, 50 μL injection volume). The concentration of the generated trisaccharide 2′-fucosyllactose was determined by a standard calibration curve with commercially available 2′-fucosyllactose and used for subsequent calculation of enzyme activity (see FIG. 6).
(§2) For both, HPAEC-PAD and photometric assays, 1 U of His6-Propeptide-WbgL is the amount of enzyme which produces 1 μmol product (GDP or 2′-fucosyllactose) per minute under standard assay conditions.
The substrate spectrum of recombinant His6-Propeptide-WbgL was analysed by HPAEC-PAD according to activity assay described above. Instead of 5 mM lactose different acceptor substrates were tested to determine the relative activity compared to lactose.

[2] = system: C[C@@H]1O[C@H](OP(=O)(O)OP(=O)(O)OC[C@H]2O[C@@H](n3cnc4c(=O)[nH]c(N)nc43)[C@H](O)[C@@H]2O)[C@@H](O)[C@H](O)[C@@H]1O; assay: Kinetic analysis by photometric pyruvate kinase/lactate dehydrogenase assay (initial rates, Michaelis-Menten); format: biochemical, Escherichia coli O126; details: other: lactose varied 0.05 to 40 mM at 2 mM GDP-beta-L-fucose, GDP-beta-L-fucose varied 0.02 to 4 mM at 10 mM lactose, 30° C., pH 7.6
Procedure: (§3) The photometric assay was performed using the pyruvate kinase/lactate dehydrogenase system for the detection of released GDP (Barratt, D. H., L. Barber, et al. (2001). “Multiple, distinct isoforms of sucrose synthase in pea.” Plant Physiology 127(2): 655-664.). The reaction mixture for the microtiter plate assay contained 50 mM Tris-HCl pH 7.6, 2 mM GDP-beta-L-fucose, 5 mM Lactose, 1 mM phosphoenolpyruvate, 1 mM DTT, 0.25 mM NADH, 2 mM MnCl2, 5 U pyruvate kinase, and 5 U lactate dehydrogenase in a total volume of 250 μl. The reaction was started by addition of 100 μl enzyme solution and followed at 340 nm at 30° C. Control experiments for the detection of side activities were done without acceptor substrate lactose (see FIG. 5).
as §2
(§4) The kinetic constants of His6-Propeptide-WbgL for the acceptor substrate lactose and the donor substrate GDP-beta-L-fucose were derived from initial rate analysis at a variable substrate concentrations using the photometric assay described above. GDP-beta-L-fucose was varied from 0.02 mM to 4 mM at a constant concentration of 10 mM lactose and lactose was altered from 0.05 to 40 mM at a constant concentration of 2 mM GDP-beta-L-fucose. All data were determined by non linear-regression analysis according to the Michaelis-Menten equation using the Sigma Plot 10 software (SPSS Science Software GmbH, Erkrath, Germany).

[3] = system: OC[C@H]1O[C@@H](O[C@H]2[C@H](O)[C@@H](O)C(O)O[C@@H]2CO)[C@H](O)[C@@H](O)[C@H]1O; assay: as above; format: biochemical, Escherichia coli O126; details: other: lactose varied 0.05 to 40 mM at 2 mM GDP-beta-L-fucose, GDP-beta-L-fucose varied 0.02 to 4 mM at 10 mM lactose, 30° C., pH 7.6
Procedure: as §3, §2, §4

[4] = pH optimum and metal ion dependency of the enzyme (HPAEC-PAD assay); format: biochemical
Procedure: as §1
To study the optimal pH value for the activity of recombinant His6-Propeptide-WbgL, assays were performed at different pH values of a 50 mM Tris-HCl buffer ranging from pH 6.8 to 8.4. Optimal pH value was 7.6 (see. FIG. 8). Addition of metal ions Mn^2+ to standard assays allowed to investigate the metal ion dependency. All samples were analyzed HAPAEC-PAD as described above.

[5] = system: E. coli BL21(DE3) ΔlacZ pDEST14-fkp pCOLA-lacY-fucP; assay: Production of 2'-fucosyllactose in recombinant E. coli expressing a fucosyltransferase (HPLC); format: cell-based, Escherichia coli
Procedure: Cells E. coli BL21(DE3) ΔlacZ pDEST14-fkp pCOLA-lacY-fucP were transformed with pACYCDuet-1 carrying the appropriate fucosyltransferase gene. Colonies were grown on 2YT plates with the appropriate antibiotics. 5 ml over night cultures (2YT with antibiotics) were grown of each strain and from this cultures 15 ml mineral medium each were inoculated to 1%. Cells were grown using glycerol as carbon source and at OD600=0.5 were induced with 0.1 mM IPTG and 40 mM lactose and 30 mM fucose were added. Cultures were incubated at 30° C. and 120 rpm. Production of 2′-fucosyllactose was monitored HPLC analysis. The comparison of the amount of 2′-fucosyllactose (2′-FL) produced by expression of FucT2 from Helicobacter pylori compared to the expression of WbgL from Escherichia coli O126 is shown in the following table 1: […]

O=C[C@H](O)[C@@H](O)[C@@H](O)[C@H](O)CO [D-Galactose]
Relative activity [1]: 71%

OC[C@H]1O[C@@H](O[C@@H]2[C@@H](CO)OC(O)(CO)[C@H]2O)[C@H](O)[C@@H](O)[C@H]1O (mixture of isomers) [Lactulose]
Relative activity [1]: 124%

CC(=O)N[C@@H]1[C@@H](O[C@@H]2O[C@H](CO)[C@H](O)[C@H](O)[C@H]2O)[C@H](O)[C@@H](CO)O[C@@H]1O [LacNAc Typ I]
Relative activity [1]: 28%

CC(=O)N[C@H]1C(O)O[C@H](CO)[C@H](O)[C@@H]1O (stereo partly drawn) [D-GalNAc]
Relative activity [1]: 0%

recombinant alpha-1,2-fucosyltransferase His6-Propeptide-WbgL (Escherichia coli)
Km [2]: 270 µM
Vmax [2]: 0.167 µmol/min/mg
Vmax/Km [2]: 618 µL/min/mg
Km [3]: 5300 µM
Vmax [3]: 0.17 µmol/min/mg
Vmax/Km [3]: 32 µL/min/mg

OC[C@H]1O[C@@H](O[C@H]2[C@H](O)[C@@H](O)C(O)O[C@@H]2CO)[C@H](O)[C@@H](O)[C@H]1O (stereo partly shown) [Lactose]
Relative activity [1]: 100%

CC(=O)NC1C(O)OC(CO)C(OC2OC(CO)C(O)C(O)C2NC(C)=O)C1O (stereo not shown) [LacDiNAc]
Relative activity [1]: 0%

OC[C@H]1O[C@@H](O[C@H]2[C@H](O)[C@@H](O)[C@H](OCc3ccccc3)O[C@@H]2CO)[C@H](O)[C@@H](O)[C@H]1O [β-Benzyl-Lactose]
Relative activity [1]: 50%

CC(=O)N[C@H]1C(O)O[C@H](CO)[C@@H](O[C@@H]2O[C@H](CO)[C@H](O)[C@H](O)[C@H]2O)[C@@H]1O (stereo partly shown) [LacNAc Typ II]
Relative activity [1]: 95%

N[C@H]1C(O)O[C@H](CO)[C@H](O)[C@@H]1O (stereo partly drawn) [D-GalNH2]
Relative activity [1]: 0%

B1: His6-Propeptide-WbgL: recombinant WbgL with N-terminal His-Tag and S. hyicus lipase propeptide (513 amino acids), expressed from pETHIS6PropwbgL in E. coli (protein)
chain: NDSTTQTTTPLEVAQTSQQETHTHQTPVTSLHTATPEHVDDSKEATPLPEKAESPKTEVTVQPSSHTQEVPALHKKTQQQPAYKDKTVPESTIASKSVESNKATENEMSPVEHHASNVEKREDRLETNETTPPSVDREFSHKIINNTHVNPKTDGQTNVNVDTKTIDTVSPKDDRIDTAQPKQVDVPKENTTAQNKFTSQASDKKPTMSIIRLQGGLGNQLFQFSFGYALSKINGTPLYFDISHYAENDDHGGYRLNNLQIPEEYLQYYTPKINNIYKLLVRGSRLYPDIFLFLGFCNEFHAYGYDFEYIAQKWKSKKYIGYWQSEHFFHKHILDLKEFFIPKNVSEQANLLAAKILESQSSLSIHIRRGDYIKNKTATLTHGVCSLEYYKKALNKIRDLAMIRDVFIFSDDIFWCKENIETLLSKKYNIYYSEDLSQEEDLWLMSLANHHIIANSSFSWWGAYLGSSASQIVIYPTPWYDITPKNTYIPIVNHWINVDKHSSC
modifications: left off: small tags and cut ends
notes: recombinant WbgL with N-terminal His-Tag and S. hyicus lipase propeptide (513 amino acids), expressed from pETHIS6PropwbgL in E. coli
Optimal pH value ([4]; 50 mM Tris-HCl buffer, pH 6.8 to 8.4): 7.6
Metal ion dependency (Mn^2+) ([4]; addition of Mn^2+ to standard assays): not dependent on Mn^2+ ions

B2: WbgL: alpha-1,2-fucosyltransferase WbgL from E. coli O126 (SEQ ID No. 2), expressed from pACYC-wbgL (protein, listed as Escherichia coli)
chain: MSIIRLQGGLGNQLFQFSFGYALSKINGTPLYFDISHYAENDDHGGYRLNNLQIPEEYLQYYTPKINNIYKLLVRGSRLYPDIFLFLGFCNEFHAYGYDFEYIAQKWKSKKYIGYWQSEHFFHKHILDLKEFFIPKNVSEQANLLAAKILESQSSLSIHIRRGDYIKNKTATLTHGVCSLEYYKKALNKIRDLAMIRDVFIFSDDIFWCKENIETLLSKKYNIYYSEDLSQEEDLWLMSLANHHIIANSSFSWWGAYLGSSASQIVIYPTPWYDITPKNTYIPIVNHWINVDKHSSC
Yield 2′-FL ([5]; 0.1 mM IPTG, 40 mM lactose, 30 mM fucose, 30° C., 120 rpm): 4.05 mM
Amount of fucosylated product 2′-fucosyllactose compared to FucT2 from Helicobacter pylori ([5]; same cultures as Table 3): significantly higher
